Test results taken from paper PMC7327177.
Where “and” joins values, the source holds several entries; their conditions need not be identical. Equal values may be shown once.

What was measured:
[1] = target: Heme A synthase from Aquifex aeolicus (Aquifex aeolicus strain VF5) (UniProt O66543); assay: native MS; LILBID-MS, AaHAS 2 mg/ml, in the presence of 150 mM NaCl, harsh laser mode, negative-ion mode
[2] = target: Heme A synthase from Aquifex aeolicus (Aquifex aeolicus strain VF5) (UniProt O66543); assay: SEC-MALS; 150 μl AaHAS at ~2 mg/ml, Superdex 200 10/300 GL, 20 mM Tris-HCl pH 7.4, 150 mM NaCl, 0.15% DM, 4°C
[3] = target: Heme A synthase from Aquifex aeolicus (Aquifex aeolicus strain VF5) (UniProt O66543); assay: native MS; LILBID-MS, additionally desalted AaHAS (without NaCl; 20 mM Tris-HCl pH 7.4, 0.15% DM), harsh laser mode, negative-ion mode
[4] = target: Heme A synthase from Aquifex aeolicus (Aquifex aeolicus strain VF5) (UniProt O66543); assay: native gel or EMSA; BN-PAGE, Novex 4 to 16% bis-Tris gel, purified AaHAS in DM; band at about 200 kDa, conversion factor 1.8 gives 110 kDa
[5] = target: Heme A synthase from Aquifex aeolicus (Aquifex aeolicus strain VF5) (UniProt O66543); assay: cross-linking; 0.5/3.5 mM BS3 or 0.5 mM DSS, room temperature, 30 min, quenched with 50 mM Tris-HCl pH 7.5, then 90°C for 10 min and SDS-PAGE
[6] = target: Heme A synthase from Aquifex aeolicus (Aquifex aeolicus strain VF5) (UniProt O66543); assay: cryo-EM structure; single-particle cryo-EM of purified AaHAS (2.5 mg/ml) in DM; map at 4.2 Å with C3 symmetry, 4.6 Å without applied symmetry
[7] = target: Heme A synthase from Aquifex aeolicus (Aquifex aeolicus strain VF5) (UniProt O66543); assay: SDS-PAGE + MALDI-TOF MS; purified AaHAS on 4 to 12% bis-Tris NuPAGE; incubated with 10 mM DTT at room temperature or 70°C for 10 min; masses of the two bands by MALDI-TOF MS (data not shown)

In the case of “Heme A synthase from Aquifex aeolicus (from UniProt O66543 2-296) (enzyme)”, the stoichiometry N [1] is reported as 3, the stoichiometry N [2] is reported as 3 and the stoichiometry N [3] is reported as 2 and 3. The stoichiometry N [4] was 3, the stoichiometry N [5] was 2 and 3 and the stoichiometry N [6] was 3. The stoichiometry N [7] was 3.
